The RNAGym collection of RNA variant scans (doi:10.7554/elife.80360)

B1: HDV Ribozyme (parent)
chain: GGCCGGCAUGGUCCCAGCCUCCUCGCUGGCGCCGGCUGGGCAACAUUCCGAGGGGACCGUCCCCUCGGUAAUGGCGAAUGGGACCCA

Variants of: B1
Assay: self-cleavage, relative activity (ratio to wild type); higher = more cleavage; co-transcriptional

| Variant | self-cleavage |
| --- | --- |
| G17A A56G | 0.59 |
| G17A C41G | 0.0997 |
| G17A C18G | 0.095 |
| G17A G59U | 0.852 |
| G17A A51U | 0.884 |
| G17U C21U | 0.13 |
| G17C G54C | 0.447 |
| G17U A43U | 0.185 |
| G17U A43C | 0.203 |
| G17C G74C | 0 |
| G17C C30U | 0.655 |
| G17C C30A | 0.342 |
| G17C C30G | 0.684 |
| A16U G54U | 0.771 |
| A16U G54A | 0.795 |
| A16U G54C | 0.955 |
| G17C G34U | 0.0415 |
| G17C G34A | 0.102 |
| G17C G53A | 0.281 |
| G17C G53U | 0.298 |
| G17C G53C | 0.178 |
| G17U C36A | 0.0665 |
| G17U C36G | 0 |
| G17U G34U | 0.0554 |

| Variant | self-cleavage |
| --- | --- |
| G17U G34C | 0.0692 |
| G17C U27A | 0.222 |
| G17C C84A | 0.231 |
| G17U C61G | 0.424 |
| G17U C61A | 0.456 |
| A16U G80A | 0.812 |
| G17A C22G | 0.0573 |
| G17C C58G | 0.32 |
| G17C C58U | 0.302 |
| G17U U60G | 0.522 |
| G17U U60A | 0.494 |
| G17U G40A | 0.246 |
| G17A C19U | 0.119 |
| G17A U79C | 0.514 |
| G17A U79A | 0.627 |
| G17A G54U | 0.554 |
| G17A A83U | 0.565 |
| G17A A83G | 0.7 |
| G17A | 0.718 |
| G17C | 0.338 |
| G17U | 0.548 |
| G17A C30G | 0.631 |
| G17U A51U | 0.491 |
| G17C G50C | 0.324 |

| Variant | self-cleavage |
| --- | --- |
| G17A C84U | 0.598 |
| G17A C84G | 0.623 |
| G17A C84A | 0.807 |
| G17A U20A | 0.253 |
| A16U G74A | 0.388 |
| A16U G74C | 0.175 |
| G17U G74U | 0.217 |
| G17U G74C | 0.0415 |
| A16U U37G | 0 |
| A16U U37A | 0.0554 |
| A16U U37C | 0.929 |
| G17C C36U | 0.0339 |
| G17C C36G | 0.122 |
| G17C C36A | 0.0361 |
| G17A C61G | 0.406 |
| G17A C61U | 0.904 |
| G17A C85G | 0.814 |
| G17A C85U | 0.641 |
| G17U C24U | 0.146 |
| G17U C24A | 0.116 |
| G17U C24G | 0.128 |
| G17U G73C | 0.145 |
| G17U G73U | 0.222 |
| G17U G73A | 0.233 |

| Variant | self-cleavage |
| --- | --- |
| G17C U37A | 0 |
| G17C U37G | 0 |
| G17C U37C | 0.344 |
| G17U A87C | 0.389 |
| G17A G29A | 0.128 |
| G17C G25C | 0.0475 |
| G17C G25A | 0.131 |
| G17C C24U | 0.106 |
| G17C A43U | 0.115 |
| G17C A43G | 0 |
| G17A G25C | 0.158 |
| G17U G54A | 0.326 |
| G17A U69C | 0.786 |
| G17A U69G | 0.906 |
| G17U C63G | 0.509 |
| G17U G80U | 0.156 |
| G17U G80C | 0.102 |
| G17U G80A | 0.272 |
| G17A A71C | 0.151 |
| G17C G59U | 0.342 |
| G17U G68U | 0.611 |
| G17C C44G | 0.0723 |
| G17C C44A | 0 |
| G17U A45C | 0.161 |

| Variant | self-cleavage |
| --- | --- |
| G17U A45U | 0.244 |
| G17U A45G | 0.525 |
| G17C C75A | 0.0536 |
| G17C C75G | 0.111 |
| G17C C33A | 0.0437 |
| G17C C33G | 0 |
| G17A C86G | 0.591 |
| G17U G55A | 0.554 |
| A16U U79C | 0.705 |
| G17C A56G | 0.145 |
| G17C C66U | 0.156 |
| G17A G74C | 0.0346 |
| G17A G74U | 0.197 |
| G17A A42U | 0.119 |
| G17A A42C | 0.229 |
| G17U C57G | 0.464 |
| G17U C57U | 0.415 |
| G17A G80U | 0.198 |
| G17A G80A | 0.205 |
| G17C G80C | 0.0906 |
| G17A G34A | 0.117 |
| G17A G34C | 0.0594 |
| A16U G76U | 1.05 |
| G17U G76U | 0.749 |

| Variant | self-cleavage |
| --- | --- |
| G17C U69A | 0.453 |
| G17C U69G | 0.317 |
| G17C U69C | 0.269 |
| G17U C33U | 0.326 |
| A16U G52A | 0.7 |
| A16U G52U | 0.863 |
| A16U U27A | 0.697 |
| A16U U27C | 0.587 |
| G17A C36U | 0.272 |
| G17U C49G | 0.356 |
| G17U C49U | 0.356 |
| G17A C66G | 0.652 |
| G17C U79C | 0.427 |
| G17C U79A | 0.26 |
| G17C U79G | 0.128 |
| G17C C32A | 0 |
| G17U A70C | 0.246 |
| A16U G73U | 0.237 |
| G17C C86U | 0.237 |
| G17U A83U | 0.34 |
| G17U C86A | 0.369 |
| G17C G31U | 0.0831 |
| G17C G31A | 0.0652 |
| A16U G59C | 0.997 |

| Variant | self-cleavage |
| --- | --- |
| A16U G59U | 0.966 |
| G17C A71C | 0.246 |
| A16U U60C | 0.831 |
| A16U U60A | 0.587 |
| G17U U20G | 0 |
| G17A G38C | 0.0791 |
| G17A C33G | 0.0369 |
| G17A C33A | 0.0875 |
| G17A A70U | 0.616 |
| G17A G76A | 0.787 |
| G17C C18G | 0 |
| G17C C18U | 0.0923 |
| G17A U23A | 0.686 |
| G17A G52A | 0.831 |
| G17U C66A | 0.684 |
| G17U C66G | 0.464 |
| G17U C66U | 0.469 |
| G17U C18A | 0.0978 |
| G17U C18U | 0.189 |
| G17C C41U | 0.0449 |
| G17A G28A | 0 |
| G17C G82A | 0.147 |
| G17C G82U | 0 |
